The domain aggregation screens of Martell et al. (2025)

Experiment: soluble fraction after stress (log2 fold change); higher = more stays soluble; pooled small domains, quantitative proteomics
Settings: stress: pH 4
In short: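 Values are log2 fold changes, and higher ones mean more of the domain stayed soluble. Each fold change reflects the soluble amount of a domain after acid stress and is taken as a measure of aggregation propensity. The stress was pH 4, applied to pooled custom libraries of small protein domains analysed by high-throughput quantitative proteomics.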

HMPKETFLNLDEEKRQAIINVLLKNFSEQHISQVKVSAIVSGIGMSRGAFYKYFEDLEDAYRFTISYFSA
soluble fraction (log2): -0.0967

HMKITAPLPGTITEIKVKVGDTVKNGDTVVVLEAMKMQNNIEAESNGTVTAIFVNKGDTVMEGDALMTI
soluble fraction (log2): 0.22

HMINLDGIGEKISRLRKEQGVTIRELSEYTGYSVGFLSNLETGKNSPTVESLQRVAEALRTDIIEILTK
soluble fraction (log2): -0.754

HMANPRLEYFLSNITPDWNEFSPELKNQLLIENADPYKLEQYILQVSPDMYIEEQNAPGTVRQMAGDITG
soluble fraction (log2): -1.54

HMGAPAISYSKFLEQVDRKNVASVTIYKDGRIDGVMTSGSRFATESPSDPGLVGDLLKAGVEIRAKPP
soluble fraction (log2): 0.144

HMENRILLSEDSLKHLAQDIPIDIIEKLSVLKDQIYHRYDDFNSIVQGLLGGENYLKYKDNILSFVEQ
soluble fraction (log2): -0.311

HMPAVTEQTKTNLRRAFWQLYEQKPIQKITVKQITDLAGYNRGTFYLYFKDVYDLLDDIENK
soluble fraction (log2): -0.584

HMNMLGEQVRNIRKSRGFTLKALAEQTGLSIGYISQIERNLTDPSLSTLRKISAALDVPTYLFMG
soluble fraction (log2): 0.0605

HMASANMPDVLGLDAETAKQVLAAKGFTKVEIYPMESSEPANRVVRQSEDRDTMVALTKEILLGVSNGS
soluble fraction (log2): -0.0377

HMIYAEDFVGRQGTANTILRPSGRIEIEGEVYDAYTRGEYVEAGERVVVISQEGSTLKVRVV
soluble fraction (log2): -1.36

HMKMNFNEEEQKLLSEANVLVETNKTYTDDEVKGFSNKIVEHIMTFSKTDIPKVKSKFDPILFKI
soluble fraction (log2): -0.745

HMNRKLKAKATREKIYKSAEKLFSQNDYNKVSVDAIVEAAGVAKGSFYVHFASKDALIAMLINDH
soluble fraction (log2): -0.012

HMKRLPAQMGGGDGVLRVPGLNNFVYVTIADKTLPAFNNRVPPKKGLRIWVGYSPEEPNLFQVLSTRTD
soluble fraction (log2): 0.0233

HMNKWMQLASEEDKKLFNEAPKEIQDSITESAKFFDIRTKADVDTFWANTGLRQMKQQAMLNESFVNEY
soluble fraction (log2): -0.482

HMNIVVSSIDSNSFEIVNKETGEQAVISYDKETKKGFVLINGVKKEFFQDGNKVYYDGYVIAE
soluble fraction (log2): -0.466

HMQALTLVGQDAKDAKAALDAVDIQPAKTETDRYIYVLTEQQAQELGRTVDALYGVEGSLTLILEV
soluble fraction (log2): -0.207

HMKPDDDMLLKILTKLFIQKQFVINSKDIFQYILKNTNRTYENIINIVNRLDTLSIEKKRQLTIPLIKEI
soluble fraction (log2): -0.555

HMNLLDYDFFEKMSSKEQEEIVEKVYIDFLNKSTGTNSPFYLKLFEKGKKSYIVNWLNENNF
soluble fraction (log2): -1.06

HMKEYPEVITTSRLNVRTGPGTGYQRLGTLDQNLRVLVLTRQQGWAQIRGMLNGETVIGWVNDYYLQAID
soluble fraction (log2): -0.259

HMSERVVEIDPSQLRPGLFIRLPSGWMNHPFLFNQFRINSAEQVEIIQKLGLKTVQYLPERSSTQALPRA
soluble fraction (log2): -0.644

HMEIRNLMPILSHFLNENDIKLSRESVNLVLDRASGNRENLNNELKKIHDYSFSNKIIDFETIKKLTNLG
soluble fraction (log2): -0.215

HMGRKPATTIPLQVRNAVLDLYRTKYYGANFQHYTELLHEHEGIRISTSSVAKILEAEYILSPK
soluble fraction (log2): -0.838

HMNDMWADITINANGKATLVVHTHEIKYLGLTGHLGKMEINGTAKEPVKDSSGDVVDYYFTFTDLDASMF
soluble fraction (log2): -0.623

HMKQLRVLGIVKAGSILKNSDGSIEFVIEDSGKSLLVKYKGVIPDIFKDGVEAVVEGDLRGSVFNADKLF
soluble fraction (log2): -0.2

HMDELPKDILRSFGLPDKPWAMELLRNLRRDGFALDGETARAYAEMAAMKPPRTDARQWMTAADVAYRRG
soluble fraction (log2): 0.105

HMASMEDILAEAKTKFQEGDLFKSVNEGIQGTHKLTLPLRIKESRIVDASGAAVYREGIWATVDK
soluble fraction (log2): 0.185

HMPANLTPDYFKAEQWYRSASTNEEKMLALEQMLAVMPKHKGTEHLQADLKRKLSQLKDASAQ
soluble fraction (log2): ≥ 0.43

HMIAPQISSGKVNTKELNVRSGPATTFGIVKKLPLNAMVGIFEEKNGWFRIATGQWVSKTYVDL
soluble fraction (log2): 0.187

HMSEGEMSQWIIAQAKQQGGGFQPDAARLLGSYVGNNTLRARQEIDKLLTYVGPSRVVTPEDVVLLTA
soluble fraction (log2): -0.0309

HMEVTLTLKSFGTAKVAVIKAIQSITGLGLMDAKKLVDAAPSVIKEKISPSEAEQYKKTLVDAGAEVEI
soluble fraction (log2): 0.0249

HMGAYITYEVKPGDTLWDIANKFPGVSADNIKTWNKVDELIKAGERLKINTQTITDYSPDKYPS
soluble fraction (log2): -0.575

HMKHFFIIAGGKIEDAFAIEVLKGFAEKTVIAADSGMEFLRRNEIVPQVIIGDFDSVSKETLEWFQKK
soluble fraction (log2): 0.22

HMSFGWELYKGKEGIADTDLHPSGWIRIADKRVFAVSEGEFIEKGLEIIVLSVDGNRIVVRELK
soluble fraction (log2): -0.445

HMGDTIGEQKAKEIALEHAGLKSSDVTFIRAVLEYDDRNWEYDVEFYDADTYTEYDYEIDAHTGKILSFDH
soluble fraction (log2): -0.171

HMHDYNTIVGVIEMRDKNIPLTSIRQRYGIGYSGIDLILTRYKDSGLTLKEFLALDPSQAEELIYPPK
soluble fraction (log2): -0.134

HMSMSKISNLLEIMMIIQYKGLTTASELAQSLGVDKKTVYRYINSLSKANIPIYTKKGRYGGFYIDKNF
soluble fraction (log2): 0.138

HMVSPEVEMLRAAVETMSERQKQVYELHYLRGFNVKETAAILGMSSPTVTAHKKRIMEIIKKFFE
soluble fraction (log2): -0.88

HMSVSTGTITGSVVNLREEPNTSSKVLDKLPKDTVVYVLSASGEWYNVSYGDKTGWVYGEYLA
soluble fraction (log2): -0.478

HMEKSSALRAKEAFMALYHDGKFKPGTKIPSESNMAELLGVSRETWRKALALLRGDGVLYSKHGSGTYLLE
soluble fraction (log2): -0.0262

HMVGDMLTQKDSEGLTAYLYQQGIISQREMLLLNGILKDRVLTGMEKGQRDSVRASMVQHLLAMLNMM
soluble fraction (log2): -1.55

HMQISGIHLYERRITKDDEWAERKLSEISLAGSLVILILRNEHVVIPNGETVLKENDLLYISD
soluble fraction (log2): -1.38

HMGTTTPPATRKGKVTSSFLNVRSGPSTANAKVAELKQNAVVTIYETSSNGWHRIGVNQWVIGTNIQE
soluble fraction (log2): -0.121

HMDKVSYALGLGIGRQLTDMGAKDLNIDDFAQAIKDVLAGGEVKLSDAEAQTIVRNFFDEQEKKQRA
soluble fraction (log2): -0.637

HMSKLQKTKYAGVYFTEDTQTRVKTYVARIVLAGIIDTEVVVGHSNDQHRTNAAIAYQRRLELIQEAKN
soluble fraction (log2): -0.372

HMEPDEQAVKALIAEIDKLSKEKLTLKHEKKLKELREIYDDFTEEEKKLVTNYDILVKMEKRMEVLKKQEG
soluble fraction (log2): 0.19

HMNLSAREWTSADGSRTFQGELTGFQDGKVKVRRSDGKSLVFAIELLSESDQQFIKTNQLVIAKKDED
soluble fraction (log2): -0.752

HMAYRLDVRNQTKGTYLVIQKKYWDKEKKQSRTKHHMSLGYVHDLQKLYSDPITHYKEVINQMNAEEKG
soluble fraction (log2): 0.0253

HMGIFDIIQEINRQGVTVLLIEQNANMALKIADVGYVLETGRISLTGSGRELLANEAVKKAYL
soluble fraction (log2): ≥ 0.43

HMNDLKEDTITVQSVEYIDSDDGTMVYIKDTNHQVYKQAFKEDESLIRISAGDVLHVKYQPMDNEIHLL
soluble fraction (log2): -2.07

HMAVQPMDQVKAWLAEDNPADIKLLVPVLQKLDLLDYEQVRGEVADRAGVRKSLLDEAVKGN
soluble fraction (log2): -0.119

HMPRPFPELTTREHDILALIARGWSNGRIADHLSLSGKTVSNYVSNILGKLQVTARAEAAERAREAGMGQ
soluble fraction (log2): -0.401

HMDPEIADAVNTIKKYLESHYSEVITRKKIEELVHLNQDHINREFKKQTGYTLMEYVQHYRILMAKKMLRV
soluble fraction (log2): -0.1

HMFRMTPQRMAILAEVQNAERHLTAAEIYERVRRKYPTIAYGTVYRTLHLLAKHGLIQEFPFGDNASLFDR
soluble fraction (log2): -0.0123

HMDTFYKNLSKKIKTIREKLSFSQEALAKELGISRVAISQIENGDRKISAEEIAKLSRVFNVPTDILLN
soluble fraction (log2): 0.131

HMRTPTGVQAYLSSGLIKGIGEKTAAAIVDKFGTDALSVIETDPERLLEIPGITPNKLREILESYNQH
soluble fraction (log2): 0.174

HMRDVVVVPDLSGLTQMEALSKLDAESLNIGEINYGVSEMPEGVIFKQDPVYGTELMKGDTVDIFISGR
soluble fraction (log2): -0.709

HMLSDFHLNHDSIVNHTVQKKETIFSLSKKYGLSINEIIKANPGIQIDKLKRRSILIIPLRKK
soluble fraction (log2): -0.12

HMNDENIIIEEIKYFIKSNQIKEQEKLPSERNLSELFTVSRFSLRKALRHLVDTGYLYVKDKSGYYYQGD
soluble fraction (log2): 0.00355

HMHPKTPDELLALMSEEQRGQIEQLAKLVLMAVSYSGASYYDAVTTMYPRMSEERRRIITHVLNTASP
soluble fraction (log2): -0.825

HMDKSLDFASIKSVEIATGRKFGWHALKKWSKSNSSEIKTIPDPNFGEVKTYHKDAWLAVYNINLSPILD
soluble fraction (log2): -0.0629

HMNELTDKQILLFSNKLAHNIPFSSKYSKPGESYEEFAERLANELIDPQKVKLYKPYLEEVGFK
soluble fraction (log2): 0.112

HMFSVVDKITLQEELKKLSKKEQLLIQLRYYDELNQEEIAKIFHVSQVQISRMEKKIIEKLKKQF
soluble fraction (log2): 0.273

HMDQDLGFLINKYFELGKDYNTLVEIYEKIKEYIASIDKKMLEYTKNFTIEQLKKWLDDGTINNIILTLG
soluble fraction (log2): -0.382

HMFWRKIDFYGLNLSTYRNIINIGSDYNYIYLDLGNIYKILNPITGKIIEEQDLVMNIDNINWSS
soluble fraction (log2): -0.105

HMNEDYSSMVGKTGFALTILRPAGKIMIEEEVFDAVAINGYISKGQEVEVVRYENAQLYVKVK
soluble fraction (log2): -0.228

HMKMVEIDYGKFLTMLDTGKVKSVEIENNRIAINPSSSKDKNIYITGRMDDPELVDRLKNAKVEFTKVIP
soluble fraction (log2): -0.0394

HMSEMVIPEDFLAALETNPQAKAFYATLNRQNQYAVYHRLQTAKRPETRAKRIADFVAQLAAGKRF
soluble fraction (log2): -0.00136

HMHALSVKFSDEAAKTLPYDILSALRDVLALDPRPGYSRDENKIYRFEYADYNISFSVKDKTLTVLSAEK
soluble fraction (log2): -0.148

HMLERPLKLKSHYVSTIYEKVAVQYSEGEEKKSVMGTLIEVNQDTIVLDDRGTIIEIPFKSITRAKTVF
soluble fraction (log2): -0.364

HMKSNNPLDHVRVKQRGASWAYYFEKAKVDGKRRRGEGGGYATEQDARMAGVEAYNAYIGGGAK
soluble fraction (log2): 0.109

HMDVLTARENEVLQLLAKGMSNKEIASVLVITEKTVKAHVSSILSKLNLSDRTQAALYAVKNGI
soluble fraction (log2): -0.154

HMTIYPFNPNYLKDYQAYRVGLSLKEIDALLDFRSSGQWINSAEDFQRITGVSDSVLEQLIPYFKFS
soluble fraction (log2): -1.73

HMNRIFQERVVPAELDTLRADKVAASLFSDFSRNELAHWIKMGDLSINGGVKKAKDKLFEGDVLILDVEIV
soluble fraction (log2): -0.679

HMEGMSIYVTVNGDMVHLTGKMSYVFVDVFEHIDFDLSKPQGSGIVTKLNGRDAQYMEEIRSGDMIEIYWR
soluble fraction (log2): -0.669

HMSGMEKLAIQEIEKEIKSFVKGDILIELTGKNRATAYVSEKNVGALIGKKGERINSIEKRLGVGIDVRPY
soluble fraction (log2): -0.275
